# Patent US20190338048A1
# Read-outs that look alike come from different tables or passages of the source.
# Key:
# Assay in all cases: LCCA, SPR
# [1] = target: CAT-2200 lambda light chain K129T_V133D
# [2] = target: CAT-2200 lambda light chain K129T_V133D; remark: listed apart in the source
# [3] = target: Pertuzumab kappa light chain V133L_S176D_T178E
# [4] = target: Pertuzumab kappa light chain V133L_S176D_T178E; remark: listed apart in the source
# [5] = target: CAT-2200 lambda light chain E124Q_T131R
substance,measurement,setting,value
CAT-2200 Fab heavy chain L143K,H1L1:H1L2 normalized median scalar value ln(r1/f1),[1],0.9
same,H1L1:H1L2 normalized median scalar value ln(r1/f1),[2],1.55
Pertuzumab Fab heavy chain V177I_S188K,H2L2:H2L1 normalized median scalar value ln(r1/f1),[3],2.15
same,H2L2:H2L1 normalized median scalar value ln(r1/f1),[4],2.3
same,H2L2:H2L1 normalized median ratio,[5],9%
